Test [1] addresses ctSTIM1 cysteine mutant at position 312 (C437S background) (human) (UniProt Q13586). As to the kind of experiment: FRET or BRET; single-molecule FRET (TIRF), symmetric inter-subunit: one cysteine mutant labelled with Alexa Fluor 555 and 647 mixed 1:1; single ctSTIM1 dimers in liposomes tethered by biotin-neutravidin; 20/150 TBS pH 7.4, room temperature. In general terms: BRET reads energy transfer from a luciferase to a nearby fluorophore.

The target of test [2] is ctSTIM1 cysteine mutant at position 337 (C437S background) (human) (UniProt Q13586). The test is described as above.

In test [1], “ctSTIM1 cysteine mutant at position 312 (C437S background) (from UniProt Q13586 233-685) (domain or fragment)” had an inter-subunit FRET efficiency of 0.9.
Turning to “ctSTIM1 cysteine mutant at position 337 (C437S background) (from UniProt Q13586 233-685) (domain or fragment)”, the inter-subunit FRET efficiency in test [2] was found to be 0.9.

Values taken from article PMC8651296.
